Here are results for one molecule from publication PMC9005503.

This assay concerns the target T1, FZD3 (human (endogenous in hESC-derived EPs)) (UniProt Q9NPG1).
T1 sequence: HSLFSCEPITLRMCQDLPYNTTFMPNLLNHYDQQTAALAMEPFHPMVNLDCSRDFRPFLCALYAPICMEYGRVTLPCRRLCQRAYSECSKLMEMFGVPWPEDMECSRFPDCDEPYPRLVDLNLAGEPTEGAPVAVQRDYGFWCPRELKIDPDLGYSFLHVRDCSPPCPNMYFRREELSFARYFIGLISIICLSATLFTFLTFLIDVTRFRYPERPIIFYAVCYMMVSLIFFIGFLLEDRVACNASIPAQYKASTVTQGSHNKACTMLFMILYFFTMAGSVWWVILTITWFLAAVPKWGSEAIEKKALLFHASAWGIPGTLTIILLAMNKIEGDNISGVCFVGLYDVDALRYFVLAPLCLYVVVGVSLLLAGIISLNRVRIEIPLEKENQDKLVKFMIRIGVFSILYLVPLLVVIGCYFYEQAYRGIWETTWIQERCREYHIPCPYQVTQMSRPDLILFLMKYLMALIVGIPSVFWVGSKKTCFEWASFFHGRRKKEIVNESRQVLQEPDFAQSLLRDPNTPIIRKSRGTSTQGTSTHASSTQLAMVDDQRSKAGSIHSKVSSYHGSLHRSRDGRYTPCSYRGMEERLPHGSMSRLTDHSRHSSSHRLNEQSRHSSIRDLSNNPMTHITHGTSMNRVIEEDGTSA

B1: WNT5A recombinant protein (ligand)
chain: IIGAQPLCSQLAGLSQGQKKLCHLYQDHMQYIGEGAKTGIKECQYQFRHRRWNCSTVDNTSVFGRVMQIGSRETAFTYAVSAAGVVNAMSRACREGELSTCGCSRAARPKDLPRDWLWGGCGDNIDYGYRFAKEFVDARERERIHAKGSYESARILMNLHNNEAGRRTVYNLADVACKCHGVSGSCSLKTCWLQLADFRKVGDALKEKYDSAAAMRLNSRGKLVQVNSRFNSPTTQDLVYIDPSPDYCVRNESTGSLGTQGRLCNKTSEGMDGCELMCCGRGYDQFKTVQTERCHCKFHWCCYVKCKKCTEIVDQFVCK
B1 came in with an INS+ cell number (immunofluorescence, day 3) of hESC-derived EPs treated with WNT5A and FZD3-neutralizing antibodies, compared to WNT5A treated EPs of 2.5 fold.
